Drawing on patent publication US20260167710A1, this text covers Kd for 1 molecule.

In test [1] the target is ST2-his (human) (UniProt Q01638). Description: BLI (Octet RED384), ST2-his on anti-his sensors, IL-33 100 nM, steady state fit, average of n=2; not at equilibrium, for comparison only. Background: Biolayer interferometry detects binding as a change in optical thickness at a sensor tip.
Test [2] shares this target. Description: BLI (Octet RED384), ST2-his on anti-his sensors, IL-33 pre-mixed with ten-fold excess of 22A06-458 (the complex binds ST2), steady state fit, average of n=2.
For test [3] the target is unchanged. Put plainly: BLI (Octet RED384), ST2-his on anti-his sensors, IL-33 pre-mixed with the anti IL-33 control antibody (the complex binds ST2), steady state fit, average of n=2.

Sequence of ST2-his (human) (Q01638 other isoform, or with tags, fused parts or gaps limits assumed): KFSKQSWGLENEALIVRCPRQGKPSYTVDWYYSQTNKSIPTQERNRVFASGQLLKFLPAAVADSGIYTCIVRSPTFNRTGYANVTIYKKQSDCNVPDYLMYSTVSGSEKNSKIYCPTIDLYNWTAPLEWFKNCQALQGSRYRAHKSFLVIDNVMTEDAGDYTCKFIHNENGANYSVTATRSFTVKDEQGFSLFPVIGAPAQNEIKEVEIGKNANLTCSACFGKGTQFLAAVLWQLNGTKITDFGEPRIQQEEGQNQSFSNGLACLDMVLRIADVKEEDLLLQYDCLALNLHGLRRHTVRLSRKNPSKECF

B1: human IL-33 (ligand, not shown: small tags and cut ends)
chain: ITGISPITEYLASLSTYNDQSITFALEDESYEIYVEDLKKDEKKDKVLLSYYESQHPSNESGDGVDGKMLMVTLSPTKDFWLHANNKEHSVELHKCEKPLPDQAFFVLHNMHSNCVSFECKTDPGVFIGVKDNHLALIKVDSSENLCTENILFKLSET
modifications: Biotinylated in Example 2; the site is not stated.
In general, Kd refers to the equilibrium constant for the complex coming apart. A higher Kd goes with weaker binding. Consider B1, for which the Kd with ST2-his (human) [1] is 7.2 nM; with ST2-his (human) [2] it was 11.5 nM; in the test with ST2-his (human) [3], 2.4 nM.
